Laboratory results taken from patent US6602854B1, “Branched multimeric Apo A-I agonist compounds” (priority 1997, dated 2003).
Where no end group is shown, it is not given here. [ ]: non-standard residue; d: D form. Aib = CC(C)(N)C(=O)O

Experiment: Circular dichroism: degree of helicity (free, SUVs, micelles, TFE)
Conditions: for He (%) free: percent helicity of free, unbound peptide; for He (%) SUVs: percent helicity of peptide-SUV complexes; for He (%) TFE: percent helicity of peptide-TFE solution; for He (%) mics: percent helicity of peptide-micelle complexes
Experimental: Far UV circular dichroism spectra were recorded between 190 and 260 nm (in 0.5 nm or 0.2 nm increments) with a AVIV62DS spectrometer (AVIV Associates, Lakewood, N.J., USA) equipped with a thermoelectric cell holder and sample changer. The instrument was calibrated with (+)-10-camphoric acid. Between one and three scans were collected for each sample, using 10 cm, 5 cm, 1 cm and 0.1 cm path length quartz Suprasil cells, respectively, for peptide concentrations of 10^−7 M to 10^−4 M. The bandwidth was fixed at 1.5 nm and the scan speed to 1 s per wavelength step. The reported data are the mean of at least 2 or 3 independent measurements.
After background substraction, spectra were converted to molar ellipticity (θ) per residue in deg. […] dmol^−1. The peptide concentration was determined by amino acid analysis and also by absorption spectrometry on a Perkin Elmer Lambda 17 UV/Visible spectrophotometer when the peptide contained a chromophore (tryptophane, dansyl, naphtylalanine).
CD spectra were obtained with free, unbound peptide (5 μM in 5 mM phosphate buffer, pH 7.4); with peptide-SUV complexes (20:1 EPC:Chol., Ri=30 and Ri=50); with peptide-micelle complexes (1-myristoyl-2-hydroxy-sn-glycero-3-phosphatidyl choline, Ri=100); and with free, unbound peptide in the presence of 2,2,2-trifluoroethanol (TFE) (5 μM peptide, 90% vol TFE).
The SUVs were obtained by dispersing the lipids (10 mM, 20:1 EPC:Chol., Avanti Polar Lipids, Ala.) in phosphate buffer (5 mM, pH 7.4) with bubbling N2 for 5 min., followed by sonication (1.5 hr.) in a bath sonicator. The homogeneity of the preparation was checked by FPLC.
The micelles were obtained by dispersing the lipid (6 mM 1-myristoyl-2-hydroxy-sn-glycero-3-phosphatidyl choline, Avanti Polar Lipids, AL) in phosphate buffer (5 mM, pH 7.4) with bubbling N2 for 5 min., followed by vortexing.
To obtain the peptide-SUV complexes, SUVs were added to the peptide (5 μM in 5 mM phosphate buffer, pH 7.4) at a phospholipid-peptide molar ratio (Ri) of 30 or 50.
To obtain the peptide-micelle complexes, micelles were added to the peptide (5 μM in 5 mM phosphate buffer, pH 7.4) at a Ri of 100.
All spectra were recorded at 37° C. The stability of peptide 4 (SEQ ID NO:4) as a function of temperature (both free in buffer and in micelles) was determined by recording spectra at a series of different temperatures.
The degree of helicity of peptide 4 (SEQ ID NO:4) as a function of concentration was also determined.
The degree of helicity of the peptides in the various conditions was determined from the mean residue ellipticity at 222 nm (Chen et al., 1974, Biochemistry 13:3350-3359) or by comparing the CD spectra obtained to reference spectra available on databases (16 helical reference spectra from Provencher & Glockner, 1981, Biochemistry 20:33-37; denatured protein reference spectra from Venyaminov et al., 1993, Anal. Biochem. 214:17-24) using the CONTIN curve-fitting algorithm version 2DP, CD-1 pack (Aug. 1982) (Provencher, 1982, Comput. Phys. Commun. 27:213-227, 229-242). Acceptable fit was determined using the statistical analysis methodology provided by the CONTIN algorithm.

| Substance | He (%) free | He (%) SUVs | He (%) TFE | He (%) mics |
| --- | --- | --- | --- | --- |
| 40 (PVLDLFNELLRELLEALQKKLK) [compound 40] | 66% | 79% | 77% | 84% |
| PVLDLFRELLNEXLEALKQKLK (PVLDLFRELLNE[Aib]LEALKQKLK) [peptide 6] | 57% | 70% | 99% | 93% |
| 104 (PLLNELLEALKQKLK) [compound 104] | 21% | 29% | 55% | 49% |
| 193 (Ac-PVLDLFRELLEELKQKLK-NH2) [compound 193] | 34% | 87% | 87% | 88% |
| 99 (KLKQKLAELLENLLERFLDLVP) [compound 99] | 72% | 80% | 80% | 88% |
| PVLDLFKELLNELLEALKQKLK [peptide 7] | 77% | 85% | 73% | 89% |
| 31 (PVLDLFLELLNE[Aib]LEALKQKLK) [compound 31] | 49% |  | 90% | 98% |
| EWLKAFYEKVLEKLKELF* [peptide 238, reference compound] | 49% | 60% | 58% | 72% |
| 45 (PVLDEFREKLNE[Aib]LEALKQKLK) [compound 45] |  |  | 86% | 84% |
| 210 (PVLDLFRELLEELKQKLK) [compound 210] | 20% | 37% | 53% | 63% |
| PVLDLFRELLNELWEALKQKLK [peptide 28] | 82% | 90% | 81% | 98% |
| 160 (PVLELFENLLERLLDWLQKKLK) [compound 160] | 65% | 75% | 61% | 73% |
| 148 (PVLELFENLLERLGDALQKKLK) [compound 148] | 10% | 23% | 80% | 76% |
| 37 (PVLDLFREWLNELLEALKQKLK) [compound 37] | 65% | 76% | 73% | 75% |
| 199 (Ac-PVLDLFRELWEELKQKLK-NH2) [compound 199] | 35% | 80% | 79% | 77% |
| 54 (PVLDLFRELLNEWLEALKQKLK) [compound 54] | 76% | 84% | 78% | 71% |
| EWLKAFYEKVLEKLKELF [peptide 248, reference compound] | 18% | 13% |  | 45% |
| PVLDFFRELLNEXLEALKQKLK (PVLDFFRELLNE[Aib]LEALKQKLK) [peptide 25] | 46% |  | 93% | 82% |
| 85 (PLDLFRELLNELLEALKQKLK) [compound 85] | 58% | 64% | 69% | 61% |
| 76 (PVLDEFRELLFE[Aib]LEALKQKLK) [compound 76] | 41% |  | 66% | 88% |
| 51 (PVLDLFWELLNE[Aib]LEALKQKLK) [compound 51] | 63% | 81% | 73% | 82% |
| 36 (PLLELLKELLQELLEALKQKLK) [compound 36] | 95% |  | 95% | 100% |
| 192 (Ac-PVLDLFKELLEELKQKLK-NH2) [compound 192] | 36% |  | 56% |  |

| Substance | He (%) free | He (%) SUVs | He (%) TFE | He (%) mics |
| --- | --- | --- | --- | --- |
| 50 (PVLDLFRELLWE[Aib]LEALKQKLK) [compound 50] | 68% | 89% | 76% | 84% |
| 154 (PVLELFENLLERGLDALQKKLK) [compound 154] | 13% | 25% | 80% | 76% |
| LDDLLQKWAEAFNQLLKK [peptide 237, reference compound] | 30% | 45% |  | 66% |
| 66 (PVLDLFRNLLEELLEALQKKLK) [compound 66] | 64% | 66% | 70% | 82% |
| 162 (PVLELFENWLERLLDALQKKLK) [compound 162] | 68% | 81% |  | 83% |
| 149 (PVLELFENLWERLLDALQKKLK) [compound 149] | 28% |  | 47% | 54% |
| DWLKAFYDKVFEKFKEFF [peptide 245, reference compound] | 38% | 70% |  | 77% |
| 55 (PLFRELLNELLEALKQKLK) [compound 55] | 38% | 78% | 75% | 72% |
| 163 (PVLELFENLLERLWDALQKKLK) [compound 163] | 27% |  | 55% | 53% |
| 91 (PVLDEFRELLNE[Aib]LEALKQKLK) [compound 91] | 43% |  | 100% | 100% |
| PVLDEFREKLNERLEALKQKLK [peptide 109, reference compound] | 19% | 23% | 58% | 45% |
| 209 (PVLDLFRELLNELLQKLK) [compound 209] | 54% | 67% | 62% | 71% |
| 217 (PVLDLFRELLELLKQKLK) [compound 217] | 52% | 76% | 70% | 78% |
| 108 (PVLDLFRWLLNE[Aib]LEALKQKLK) [compound 108] | 28% |  | 54% | 55% |
| 240 (Ac-DWLKAFYDKVAEKLKEAF-NH2) [compound 240] | 16% | 59% | 57% | 68% |
| 35 (PVLDWFRELLNELLEALKQKLK) [compound 35] |  | 61% |  | 59% |
| DWLKAFYDKVAEKLKEAF [peptide 244, reference compound] | 9% | 13% | 48% | 40% |
| 38 (PVLDLFRELLNE[Aib]LEAWKQKLK) [compound 38] | 25% | 21% | 49% | 49% |
| 60 (PVLDLFRELLNELLEALKQ) [compound 60] | 39% | 66% | 84% | 83% |
| 215 (Ac-PVLDLFRELLEEWKQKLK-NH2) [compound 215] | 28% | 53% | 68% | 63% |
| 67 (VLDLFRELLNELLEALKQKLK) [compound 67] | 81% | 84% | 94% | 90% |
| 113 (PVLDEFREKLNEPLEALKQKLK) [compound 113] | 6% |  |  | 22% |
| 220 (PVLDLFRELLEELQKKLK) [compound 220] | 27% | 54% | 64% | 64% |
